From the supplement of paper PMC12636428

tested on: Saccharomyces cerevisiae; assay: transcriptional activation domain activity (GFP:mCherry ratio, weighted mean of sorted bins, harmonized to initial dataset scale) (arbitrary fluorescence ratio units); higher = stronger transcriptional activation; conditions: beta-estradiol 1 µM; induction time 4 h
Summary of the method: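 Yeast diploids with a GFP reporter received barcoded protein tiles, fused to an estradiol-inducible synthetic transcription factor, at the URA3 locus. Cultures were diluted 1:5 into SC holding 1 uM beta-estradiol, incubated 4 hours at 30 °C, sorted into 8 bins on GFP:mCherry ratio, and sequenced for barcodes, with tiles under 50 reads discarded. Activation activity values come from the read-weighted mean of bin median fluorescence, averaged across barcodes and linearly placed on the initial dataset scale.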

Sequence	transcriptional activation domain activity
MSTNSPESTGDHTDTERKDMPRKRSKVSRACDACRRKKVRCDAEFLTTLQKVT	79400
MYYILMFLIYTCQLLLLLINLHWLAVACDTFPSWPLMQTNFYFCLLLLVTLFR	31900
FFRRLLLEIGWAHPLLVLCSATLLEPAHSRDHYVSKVFSHLSPEHAHVVGEIA	47500
MKKKKGEGMKKERRRRGGEGGGKGALRREKKGTGTGKDGEREKQEKGEEGKCN	29900
RYLYAAMNLLSIINPIFSLIQFVIACFLVAGNLSLVYVRVWGPIVLLSLFLFD	45800
SISQFCWIWYTRPRPLQDICYYDSASRGPWGCFLLLLRLRFIRFACIGAIITL	78600
MYRCYCGLLMVPWYPCAVVFHVCLCGVRWGCENGVIGVYVLGWWVLWFVVLFG	32600
EMGTLAALLWQPEIRDLTTYLRDIRVAVANVLDVFAMIEPSRLIAKIKIHLLA	43100
ADNNDDEDQDEEEATPAPKPRGGRAPKAAAAATKKSAAAKKAPATRGRKKIIE	33500
CFLVLSCRWLLVLPALTYLATSVLYTYDITITVTGQTRSVRLPSSIACILNVA	42200
KQYCVRPNSGRIEPGKDVEVQILLQAMKEDPPLDAKCRDKFLVQSVAVSADKE	40700
VPSSIPRARRLQTAMVAIWSTSIVTTFALTLFLCSFPPLWPFMLMYVIWLNYI	49000
YLIRLILVILLMEFMLHYIYVQALCKSKNFENYTPYQLLMISFFSLKFIWLKL	58900
RGSLREDESQHIATGVEGVHEARDGGRRTSNARAEKTKRVATPVCLSAAHTRG	28600
SRRAHSSDRDEARSARRRGRDRSRSRNRSRSWSRHRHRHRSHSRDAPAAAAAR	22600
MLSLKSFLPLQASLLFAAVGPISLFSLSDDVVRHIFCLKLQIFYLRFLLKWEH	43700
MRSMKRTFFFFFLVFDLRYYSVLYYILYLYPFPFFLFLFIFYFPLFLFLSTAS	54500
KSKKKRRSKRKPKNQKKKTTGKDAQEHLDDEQTRNLEDGQDDKKDEQDDDNKK	31400
LTQRNTCITGGPFWFFFFFFCLLVFSLPPSLKLFPTLPRITCLFSHVFFFFFP	15700
MGEEDAKVGAGPALQVIVLGSGGGPQENNVTALLVRSVNSNWARGSMLALDAG	36500
KPEPAGEKAEVANGEGAPEGNRRRPSGRGRGRGRGGRGARGGRDAKEEGAEEA	51900

Sequence	transcriptional activation domain activity
SVSRDRGAFEWAGDNLMTVFCQPYRLVDPEMWCLLYDVLRFNACCRSIIATPY	63900
AINTAKAEIDGVREIMTENIERVLERGEHMSVLVDKTGRLGENARDFRVRSRT	29100
MGGGGGACSCSIAYIHGFLSSLFFLLFATTFFHYSFCLLLLWMLIFFWLFAFV	< 6570
AAAVEKTEEEKPVAAAAAPAAEKEKAPAAKAKKATTTKKAAAPKKAAAPKAKK	27700
MSLFFLLFPHVFAFILFLLSSFYSLSPIHSVFYPSFSLFPLSSLFYLTFPFSL	59400
VLLILGLGNPLCSRPVKLFEWMIAALVFAVLICMTMIIVKVNVVWSQAFNGFV	45600
MHTPFLFLPPCPSRTRLLLFFSLILFLLVLVPAPCHAQPWNLGTLFFIFWLAS	52700
SQLYFNVYPNELDERFSLFDPTYSLQWLFEHLFTTRVVELTRMLCFVMCIFVL	37700
MELSFFSVSSDGDLFFLLLFLIRGVLEKYFFDWYFDLPLWVFVCFFLFVFLTL	54600
TNNEFEGESDDFVHSPYLNSEADFSQILSSAPPVHHDPNETHQENQDIIDRFA	66800
NPLIIYSSQYSVWTMSFSLFFCVFWFLMAGCNFVRPSALHRVYSLIWMFILGW	51800
DDEGSTRDRKSHKRRSRDKDDSDEEEDRKRRKRRKERERSKDKEERRSVLTGK	28900
IMMFPMFIALSILYAMVYLGVLFSFFSVLFFFSVVYFLEPGGLCILDVFFYYY	68000
GREANDAAQKQRKREGARAARDGNRSAKEGNGRQDAGSRKKAGDGEGGGAERG	20600
AAKDRRHLRSRSQATYLILLGIMLWGLLRWRKTNVFKLWHLLVRQGACWILIV	60400
MLYLCFLISFYSLCFLFSYFFNFVLDILFFYYFIIFLFSYFSIFLFSYFLICL	54300
MSLSEWLRMIWVCFGRSTSCTIVRFSFHMRLIHVLIVVVLGTVRRHWLWSFVY	35500
ISGQEHKDMCRILLGLIIDLPLPSGQVTSRIIRLVHALLDFLYLAQLPSQTTN	61400
FATFYVARDVFHVTPNELHSIMYLHISSAPHFVIFSTRVPGFWWENMPHWLFF	51500
AAAGAADEAKTSSSPNGTKEAAVASSGGEKPAAAGVAGAPNSQSQTGAQPTKK	28700
CLCLILLALLAVELMALFVVITLVILLLIVIVLSLILLFANLMLPLVFLLLYI	26400

Sequence	transcriptional activation domain activity
KLLLVHGRWSYQRIADMHANFFYKNVIWTFGLFWYMPFNGFDATYLYHYTFIL	58100
MNQSPDDTGGEDQTTAPSWRACDNCRARKIKCDKRSPCSNCRVSNAICRTAKK	30600
VYVDNDGLPARSQWVLMYERMGEQGGMTLAARFVMFVDFLVQMVRLLSRSPLY	34600
GFTTLSMMHATVFHGDLISFKHFLELYRHSPLLILYICGYKNTEYYAARYFYS	34700
KAAAVVASDSDEPVEKPKPRRRNSTSSAKSGKSTKSNRSSRDKTAAGVAAGAG	20700
MMRCRFGVVFRILPYYLFVFPQIFIYLLLDSFDVQSSLPLLLLYTSLIILVTW	56900
MYVLARVRMFSSGSRLLRLDRVRGYMLWLILLVVYVYLALTCISFRPPFFYHS	71600
MSSPNEKMDVDRASPDRRSKSSRNHSTETHRTKRSHRSRSRGGERDKERRDRR	34300
IPYVAQEYGFDYELVTYKWPSWLRAQKEKQRVIWAYKILFLDVLFPLDLKKVI	62100
VFYGSNYFFICAISYVKGLGFCISDSFRYSWMSISPYWMIFMVVCNILPAILI	63900
HFSLLWPPHCSLWCTLFFLLIGHFVFILCLCYSVFFSFPSFLLIVSCFLLCFP	37800
IYFTFRILLYAIWCALAKVHRWNKTTLWNTLCKYLSRLVAATKSRTKTHAPWL	49300
KSNGTEGAGAEGSKGGEGSTGEGSKGEGSSGEGAKGGEGSKGEGAGAEGSKGG	36300
LKLLVCVLWCLDTFDFILNCNLLYLFLVTNYMNPLILIKRPPWSLVLHVAVTV	53400
DFTLEQDPDVLDTWFSSGLWPFSILGWPDKTPDLKTFYPATILETGWDILFFW	54800
TASTGTEARNAETTTRRVRSGIVNRRSHAKSRTGCRTCKRRRIKCDESRPSCR	22400
NLVRCYYYYGYFGLQSCMVHVFLWFMWWIFLLSSRPLQSTPLSIIWRIILYQA	29700
ATLHYISPYCPRFGRYHILRMLHCIGGLHVAANLWCYYWVWVYVLNEIILPQW	66400
LAKARCGCCFQIGSLVELIKLCLLIMLLVVIYFVTVQALIAVLVSSKLCILVP	43800
MAFGAVLGLFICDADKVVRADGSRIILMKHPSWKTEIVGLWQTLIAEPWIIML	51400
ALCRVAARALDTVRMLSTKVRLMLVHAFRRLEPLDVAFQSRSAVPMMSLGIQL	66600

Sequence	transcriptional activation domain activity
WSILYLLCEVYARLLLTLSDDEFLSHAGNPLSLKQVIELTRQLKNLSFVLFWR	70700
ALHLVWSGSTIYVKPLPACLVDFDFFMRFISPFPHIYEDACGFLLTYARLIVH	89800
EVEGEGEDGEEEAAPPPKKVRASGRSKKIEYKEESEEEAPAPKKTRGKKAATK	6720
MGGKASWCVFSFCLLFPLYFLLSLPPSFFIFHFYCVLALLPLPLPFPFFPSIC	58700
MLQIRSFVIAAFALPLCLLFCFFTLPFFALCPFLLYFPSFSILLLRLMLHLLV	49200
EVAEEAAAAAAPEKKTRRGASKKAAAEKAAAAEEEGEKAAQKAEKAAEKAAEK	33200
KAKAGADGDAAPKKKKAASKKDSNGSDAEDSDGEAKPKPKLKKKAAAAGKAKA	29400
KISALCCVLSVFKIDDLVNDPILNKVLHLNNIYLDVLISLILRNNQPTIELMV	57900
LIVGGGATGAGTALDAASRGLKVALVERDDFSAGTSSKSTKLVHGGVRYLQKA	51800
KESPILVGLICIFNASTFLQMMFYAAISLPLNEDACFGVNFVQTLLWHISFCT	74000
PLLNGSAIISRLTTGVIGDRYGVLTCEVPVAFITGCLIFSMCVLLLIILHLVC	21700
SIILLCLPAAYFLFNIFSVGLLSLGFSHRLIPGIPRLRRYIFVPGVFLYIFAR	54300
HHTHHSSSTDWSRAFRKWSVRLLLAIAFPTTYLLGAAMPPKIILMLYPRYSPP	39100
ADRLIRILRILMFNWKFWNTGCFATYDPNSNLVRLEIPCSRDLLGTKPGTYYY	50200
LIAGWCCLLSASCGIFYCIFRAIAIYVPEFNCRVVLWCFAILKVISILCHAAV	32700
KWHSTMQSAAARGTRVLHDKRRSRVKREGGEGGGGKEERRRQRRRTCATCTRL	29700
MRTHVLSMHSALLLLHCLRAVWLAPVSRPRQCLTSPAFCSSTRLAIILGGVRH	77900
MGLLCFVFVLHSVFFIFNALSFLPWFVFLKIKFIFLCLSSFGRVFSSFIYMIF	53000
DLVFGIIIVRSLLIPVVLVFFFTFACFHIYLSHTSFFPAFYSSILGFHPLAFS	73300
RPPPPSAAAEPAADAPATEEAKPGHEKKEKTEKKPKEKAKKAEKKEEVCAAAT	< 6570
